B1: BBSome complex member BBS5 (Homo sapiens), Q8N3I7 (parent)
chain: MSVLDALWEDRDVRFDLSAQQMKTRPGEVLIDCLDSIEDTKGNNGDRGRLLVTNLRILWHSLALSRVNVSVGYNCILNITTRTANSKLRGQTEALYILTKCNSTRFEFIFTNLVPGSPRLFTSVMAVHRAYETSKMYRDFKLRSALIQNKQLRLLPQEHVYDKINGVWNLSSDQGNLGTFFITNVRIVWHANMNDSFNVSIPYLQIRSIKIRDSKFGLALVIESSQQSGGYVLGFKIDPVEKLQESVKEINSLHKVYSASPIFGVDYEMEEKPQPLEALTVEQIQDDVEIDSDGHTDAFVAYFADGNKQQDREPVFSEELGLAIEKLKDGFTLQGLWEVMS
partner: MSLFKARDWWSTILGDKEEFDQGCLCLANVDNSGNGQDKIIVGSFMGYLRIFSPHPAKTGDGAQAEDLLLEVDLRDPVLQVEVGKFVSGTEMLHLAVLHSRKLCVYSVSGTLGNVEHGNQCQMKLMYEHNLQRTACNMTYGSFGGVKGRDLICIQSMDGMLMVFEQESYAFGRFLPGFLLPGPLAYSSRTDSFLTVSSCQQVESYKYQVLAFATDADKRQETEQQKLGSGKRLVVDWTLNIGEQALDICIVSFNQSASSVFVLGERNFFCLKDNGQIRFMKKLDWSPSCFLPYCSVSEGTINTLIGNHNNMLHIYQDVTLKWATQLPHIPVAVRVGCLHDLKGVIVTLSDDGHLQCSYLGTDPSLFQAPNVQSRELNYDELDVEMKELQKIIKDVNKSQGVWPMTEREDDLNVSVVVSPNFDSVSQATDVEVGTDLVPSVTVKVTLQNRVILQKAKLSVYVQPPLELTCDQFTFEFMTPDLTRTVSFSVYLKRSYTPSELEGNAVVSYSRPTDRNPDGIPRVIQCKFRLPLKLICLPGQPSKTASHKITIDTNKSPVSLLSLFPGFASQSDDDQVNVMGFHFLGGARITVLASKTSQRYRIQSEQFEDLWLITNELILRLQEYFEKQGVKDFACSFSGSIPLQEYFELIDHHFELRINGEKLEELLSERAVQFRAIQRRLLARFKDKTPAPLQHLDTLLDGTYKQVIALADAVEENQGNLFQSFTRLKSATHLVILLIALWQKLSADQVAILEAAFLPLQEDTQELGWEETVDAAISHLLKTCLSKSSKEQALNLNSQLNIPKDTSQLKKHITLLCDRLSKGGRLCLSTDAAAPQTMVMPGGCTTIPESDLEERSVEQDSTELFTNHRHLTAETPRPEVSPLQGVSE

Variants of: B1
Conditions: with pthb1_human BBS9, Q3SYG4

Row | Variant | effect of a mutation on the interaction
1 | K87E | with no effect
2 | K87A | with no effect
3 | N78K | with no effect
4 | N78E | with no effect
5 | T83K | with no effect
6 | T83A | disrupting interaction strength
7 | T83E | with no effect
8 | T111E | with no effect
9 | T111A | with no effect
10 | T111K | with no effect
11 | A84K | with no effect
12 | A84E | with no effect
13 | A94E | with no effect
14 | A94K | with no effect
15 | R82E | with no effect
16 | R82A | with no effect
17 | R82K | with no effect
18 | T99A | with no effect
19 | T99K | with no effect
20 | T99E | disrupting interaction strength
21 | L98K | with no effect
22 | L98A | with no effect
23 | L98E | with no effect
24 | E93A | with no effect
25 | E93K | with no effect

Row | Variant | effect of a mutation on the interaction
26 | S86A | with no effect
27 | S86E | with no effect
28 | S86K | with no effect
29 | L95A | with no effect
30 | L95E | disrupting interaction strength
31 | L95K | with no effect
32 | F106E | with no effect
33 | F106A | with no effect
34 | F106K | with no effect
35 | R105E | with no effect
36 | R105A | with no effect
37 | R105K | with no effect
38 | T80E | with no effect
39 | T80A | disrupting interaction strength
40 | T80I | disrupting interaction strength
41 | T80K | with no effect
42 | I97K | disrupting interaction strength
43 | I97A | with no effect
44 | I97E | with no effect
45 | L88K | with no effect
46 | L88A | with no effect
47 | L88E | with no effect
48 | S103E | with no effect
49 | S103A | with no effect
50 | S103K | with no effect

Row | Variant | effect of a mutation on the interaction
51 | I109E | with no effect
52 | I109A | with no effect
53 | I109K | with no effect
54 | I79E | with no effect
55 | I79A | with no effect
56 | I79K | with no effect
57 | N85E | with no effect
58 | N85K | with no effect
59 | N85A | with no effect
60 | F108K | with no effect
61 | F108E | disrupting interaction strength
62 | F108A | with no effect
63 | G90K | with no effect
64 | G90E | with no effect
65 | G90A | with no effect
66 | K100A | with no effect
67 | K100E | with no effect
68 | C101E | with no effect
69 | C101A | with no effect
70 | C101K | with no effect
71 | T81K | with no effect
72 | T81A | with no effect
73 | T81E | with no effect
74 | N102K | with no effect
75 | N102E | with no effect

Row | Variant | effect of a mutation on the interaction
76 | N102A | with no effect
77 | E107K | with no effect
78 | E107A | with no effect
79 | F110K | with no effect
80 | F110A | with no effect
81 | F110E | with no effect
82 | N112A | with no effect
83 | R89K | with no effect
84 | R89A | with no effect
85 | R89E | with no effect
86 | Q91K | with no effect
87 | Q91A | with no effect
88 | Q91E | with no effect
89 | T92K | with no effect
90 | T92E | with no effect
91 | T92A | with no effect
92 | T104A | with no effect
93 | T104K | with no effect
94 | T104I | disrupting interaction strength
95 | T104E | with no effect
96 | Y96E | with no effect
97 | Y96A | with no effect
98 | Y96K | with no effect

Further lines, results first:

Row | effect of a mutation on the interaction | Variant
99 | with no effect | S117A
100 | with no effect | S117K
101 | with no effect | S117E
102 | with no effect | R129A
103 | with no effect | R129E
104 | with no effect | R129K
105 | with no effect | S123E
106 | disrupting interaction strength | S123F
107 | with no effect | S123A
108 | with no effect | S123K
109 | with no effect | Y131E
110 | with no effect | Y131A
111 | with no effect | Y131K
112 | with no effect | M136K
113 | with no effect | M136A
114 | with no effect | M136E
115 | with no effect | V127E
116 | with no effect | V127K
117 | with no effect | V127A
118 | with no effect | S134E
119 | with no effect | S134A

Row | effect of a mutation on the interaction | Variant
120 | with no effect | S134K
121 | with no effect | F140A
122 | with no effect | F140E
123 | with no effect | F140K
124 | with no effect | T122E
125 | with no effect | T122K
126 | with no effect | T122A
127 | with no effect | R119E
128 | with no effect | R119K
129 | with no effect | R119A
130 | with no effect | M125A
131 | with no effect | M125E
132 | with no effect | M125K
133 | with no effect | Y137E
134 | with no effect | Y137K
135 | with no effect | Y137A
136 | with no effect | H128E
137 | with no effect | H128K
138 | with no effect | H128A
139 | disrupting interaction strength | A130K
140 | with no effect | A130E

Row | effect of a mutation on the interaction | Variant
141 | with no effect | F121A
142 | with no effect | F121K
143 | with no effect | F121E
144 | with no effect | V124A
145 | with no effect | V124E
146 | disrupting interaction strength | V124K
147 | with no effect | P118A
148 | with no effect | P118E
149 | with no effect | P118K
150 | with no effect | R138A
151 | with no effect | R138E
152 | with no effect | R138K
153 | with no effect | K135E
154 | with no effect | K135A
155 | with no effect | T133A
156 | with no effect | T133E
157 | disrupting interaction strength | T133I
158 | with no effect | T133K
159 | with no effect | N112E
160 | with no effect | N112K
161 | with no effect | V114K

Row | effect of a mutation on the interaction | Variant
162 | with no effect | V114E
163 | with no effect | V114A
164 | with no effect | G116A
165 | with no effect | G116E
166 | with no effect | G116K
167 | with no effect | E132A
168 | with no effect | E132K
169 | with no effect | P115K
170 | with no effect | P115A
171 | with no effect | P115E
172 | with no effect | D139A
173 | with no effect | D139E
174 | with no effect | D139K
175 | with no effect | L120K
176 | with no effect | L120A
177 | with no effect | L120E
178 | with no effect | A126E
179 | with no effect | A126K
180 | with no effect | L113A
181 | with no effect | L113K
182 | with no effect | L113E

Source: IntAct's records for PubMed 29039417
